Experimental findings from patent US20260049134A1 (UNIVERSITY OF FLORIDA RESEARCH FOUNDATION, published 2026) are described below.

Where a chain is given by its changes, count along the chain named. Numbers in names are those of the source.

One assay deals with T1, IGSF11 (VSIG3).
T1 construct: coated protein in the ELISA; also called IGSF11-Fc (R&D Systems)
T1 chain: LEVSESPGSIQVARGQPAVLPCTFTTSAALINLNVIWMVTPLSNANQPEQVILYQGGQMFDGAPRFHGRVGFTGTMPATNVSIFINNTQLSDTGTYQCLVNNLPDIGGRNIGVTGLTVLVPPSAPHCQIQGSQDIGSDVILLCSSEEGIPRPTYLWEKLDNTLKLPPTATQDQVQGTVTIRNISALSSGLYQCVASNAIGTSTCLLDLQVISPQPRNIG
Description: ELISA on coated IGSF11-Fc. On the procedure:
(§1) Recombinant purified ECDs (50-150 ng) of each putative target protein were coated, incubated with 150 ng of the indicated primary antibody, and binding was detected using a peroxidase-conjugated anti-human Fab secondary antibody. Heatmap represents averages of technical triplicates. (8B) Target validation via siRNA knockdown. H929 cells were transfected with siRNA pools targeting the putative antibody targets ICAM1, CADM1, and PTPRG. Cells were then subjected to cognate IgG binding analysis via flow cytometry. (NT, non-targeting siRNA).
(§2) ELISA ELISA was conducted as described previously. Briefly, 50-150 ng of antigen was coated overnight in half-area 96-well plates at 4° C., blocked with 3% BSA at 37° C. for 1 h, and 150 ng of chimeric rabbit/human IgG1 was added, incubating for 2 h at 37° C. […] After incubating at 37° C. for 15 min-1 h (depending on intensity of controls), data were acquired using a SpectraMax M5 plate reader (Molecular Devices).

The target in assay [1] is T2, PTPRG-Fc (ECD of human PTPRG, aa 20-736, fused to human Fc gamma 1) (human, UniProt P23470 20-736).
T2 construct: Made in-house in Expi293 cells; Used in ELISA and SPR; also called recombinant PTPRG-Fc; PTRPG; not shown: human IgG1 Fc (Fc gamma 1) after the hinge
T2 sequence: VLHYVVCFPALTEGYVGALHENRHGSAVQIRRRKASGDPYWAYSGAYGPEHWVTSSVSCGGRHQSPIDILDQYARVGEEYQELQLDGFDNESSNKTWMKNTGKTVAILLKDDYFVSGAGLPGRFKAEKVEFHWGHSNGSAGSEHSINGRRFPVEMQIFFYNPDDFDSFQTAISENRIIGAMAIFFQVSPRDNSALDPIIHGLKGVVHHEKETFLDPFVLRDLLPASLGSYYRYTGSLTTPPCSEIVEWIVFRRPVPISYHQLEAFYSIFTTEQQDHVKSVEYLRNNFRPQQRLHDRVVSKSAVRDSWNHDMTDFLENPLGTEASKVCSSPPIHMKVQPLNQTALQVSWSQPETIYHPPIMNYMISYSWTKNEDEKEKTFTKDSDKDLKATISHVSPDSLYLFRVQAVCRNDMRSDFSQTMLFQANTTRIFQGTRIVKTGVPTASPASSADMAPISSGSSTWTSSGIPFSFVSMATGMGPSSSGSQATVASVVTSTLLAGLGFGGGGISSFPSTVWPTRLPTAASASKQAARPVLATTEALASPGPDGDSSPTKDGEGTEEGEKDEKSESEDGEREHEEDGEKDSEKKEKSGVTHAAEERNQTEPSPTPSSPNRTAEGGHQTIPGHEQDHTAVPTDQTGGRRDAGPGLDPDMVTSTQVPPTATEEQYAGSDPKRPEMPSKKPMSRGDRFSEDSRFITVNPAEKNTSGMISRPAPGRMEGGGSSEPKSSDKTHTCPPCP
Nature of the assay: ELISA on coated PTPRG-Fc, 150 ng IgG1; None 0.117. The procedure:
as §1, §2
For orientation: In an ELISA, binding on a coated surface is turned into a signal by an enzyme label.

The target in another assay is T3, DCC.
T3 construct: coated protein in the ELISA; also called DCC-His (R&D Systems)
T3 chain: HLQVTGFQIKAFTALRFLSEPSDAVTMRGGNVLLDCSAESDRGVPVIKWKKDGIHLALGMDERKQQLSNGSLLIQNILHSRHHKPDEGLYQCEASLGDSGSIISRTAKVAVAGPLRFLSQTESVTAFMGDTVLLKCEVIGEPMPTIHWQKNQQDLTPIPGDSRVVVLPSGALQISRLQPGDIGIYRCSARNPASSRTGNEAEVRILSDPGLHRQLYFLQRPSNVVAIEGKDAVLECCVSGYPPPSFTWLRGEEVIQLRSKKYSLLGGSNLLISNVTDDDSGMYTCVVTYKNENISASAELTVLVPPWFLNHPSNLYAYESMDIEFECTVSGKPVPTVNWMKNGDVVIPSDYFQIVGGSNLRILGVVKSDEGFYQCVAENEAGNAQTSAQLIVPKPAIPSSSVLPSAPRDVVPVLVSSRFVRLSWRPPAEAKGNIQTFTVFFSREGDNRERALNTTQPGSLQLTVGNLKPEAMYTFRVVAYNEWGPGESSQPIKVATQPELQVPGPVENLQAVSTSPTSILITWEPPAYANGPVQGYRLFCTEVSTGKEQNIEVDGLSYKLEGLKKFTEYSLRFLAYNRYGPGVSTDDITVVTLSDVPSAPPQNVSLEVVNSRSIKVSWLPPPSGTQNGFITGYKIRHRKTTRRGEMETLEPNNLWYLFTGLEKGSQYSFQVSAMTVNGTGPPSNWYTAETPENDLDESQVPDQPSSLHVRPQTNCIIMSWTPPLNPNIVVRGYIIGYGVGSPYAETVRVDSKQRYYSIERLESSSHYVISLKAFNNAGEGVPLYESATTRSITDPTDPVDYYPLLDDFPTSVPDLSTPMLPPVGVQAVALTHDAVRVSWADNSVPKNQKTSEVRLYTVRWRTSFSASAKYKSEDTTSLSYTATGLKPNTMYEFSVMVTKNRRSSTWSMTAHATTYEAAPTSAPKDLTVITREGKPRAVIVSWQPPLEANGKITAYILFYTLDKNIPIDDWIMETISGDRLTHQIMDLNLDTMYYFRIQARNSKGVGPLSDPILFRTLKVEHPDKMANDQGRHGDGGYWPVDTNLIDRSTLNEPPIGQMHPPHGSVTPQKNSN
Nature of the assay: ELISA on coated DCC-His, 150 ng IgG1; None 0.095. The procedure:
as §1, §2

A further assay concerns the target T4, PTP4A3 (PRL-3).
T4 construct: coated protein in the ELISA; also called His-PTP4A3 (R&D Systems)
Nature of the assay: ELISA on coated His-PTP4A3. The procedure:
as §1, §2

T4 sequence (chain, as listed by the source limits assumed): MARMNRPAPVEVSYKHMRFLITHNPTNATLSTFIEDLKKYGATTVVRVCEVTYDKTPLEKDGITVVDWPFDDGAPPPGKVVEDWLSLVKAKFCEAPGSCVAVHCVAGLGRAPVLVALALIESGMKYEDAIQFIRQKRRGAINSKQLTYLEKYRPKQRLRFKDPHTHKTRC

B1: HW-81 chimeric rabbit-human IgG1 LA/LA/PG (antibody, V domains shown)
VH: QKQLVESGGGLVTPGGTLTLTCTVSGFSLSSNGVSWVRQAPGKGLEYIGLIRSIGSTYYATWAKGRFTISKTSTTVDLKITSPTTEDTATYFCARGGYRNGFKLWGPGTLVTVSS
VL: QPVLTQSPSVSAALGASAKLTCTLSSAHKTYYIEWYQQQHPGKAPRYLMQLQSDGSYTKGTGVPDRFSGSSSGADRYLIISSVQAEDEADYICGVIDSAVYVFGGGTQLTVTG
notes: Fc-silenced (L234A/L235A/P329G) IgG1, lambda; Alexa Fluor 647-labeled in single-step flow cytometry; Cluster C-45
B1: the binding result in the assay with IGSF11 (VSIG3) and with PTP4A3 (PRL-3) was “no binding (tested: 150 ng IgG1 per well)” throughout. Also, the “ELISA Absorbance (405 nm-570 nm)” value stood at 0.122 in assay [1] and 0.068 in the assay with DCC.

B2: HW-97 chimeric rabbit-human IgG1 LA/LA/PG (antibody, V domains shown)
VH: QKQLVESGGRLVTPGTPLTLTCTVTGIDLSSHGMSWVRQAPGKGLEWIGVIYPSGSTWYASWARGRFTISKTSTTVDLKMTSLTTEDTATHFCARGDVGGADNNIWGPGTLVTVSS
VL: SFVLTQPASVQVDLGQTVSLTCTAETLSRSYASWYQQKPGQAPVLLIYRDTSRPSGVPDRFSGSSSGNTATLTISGAQAGDEADYYCATSDGSGSSYQYVFGGGTQLTVTG
notes: Fc-silenced (L234A/L235A/P329G) IgG1, lambda; Alexa Fluor 647-labeled in single-step flow cytometry; Prototype of cluster C-97
In the case of B2, the binding result with IGSF11 (VSIG3) and with PTP4A3 (PRL-3) was “no binding (tested: 150 ng IgG1 per well)” throughout. In addition, the “ELISA Absorbance (405 nm-570 nm)” value amounted to 0.096 in assay [1] and 0.065 in the assay with DCC.

B3: HW-101 chimeric rabbit-human IgG1 LA/LA/PG (antibody, V domains shown)
VH: QEQLVESGGRLVTPGTPLTLTCKASGFSLGKYDMSWVRQAPGKGLEWIGTIYAGSGSTWYASWAKGRFTISKTSTTVDLKMTSLTTEDTATYFCARDFLGVNSIWGPGTLVTISS
VL: B2 VL with D13N, E25D, G40D, Y48H, S65N, S96N, Y97F, Q98H, Y99F
notes: Fc-silenced (L234A/L235A/P329G) IgG1, lambda; Alexa Fluor 647-labeled in single-step flow cytometry; Cluster C-97
On to B3, for which the binding result in the assay with IGSF11 (VSIG3) and with PTP4A3 (PRL-3) was “no binding (tested: 150 ng IgG1 per well)” in each case. In addition, the “ELISA Absorbance (405 nm-570 nm)” value worked out at 0.097 in assay [1] and 0.057 with DCC.

B4: HW-113 chimeric rabbit-human IgG1 LA/LA/PG (antibody, V domains shown)
VH: QKQLVESGGGLVQPGGSLTLTCTVSGFSLNKYYMGWFRQAPGKGLEWIGVISRSGDTYYSSWAKGRFTISKASTTVDLRITSPTTEDTATYFCARDASSPGFHGDRLDLWGQGTLVTVSS
VL: B2 VL with D13N, E25D, S93I, S96N, Q98L, Y99W
notes: Fc-silenced (L234A/L235A/P329G) IgG1, lambda; Alexa Fluor 647-labeled in single-step flow cytometry
For B4, the binding result with IGSF11 (VSIG3) and with PTP4A3 (PRL-3) was “no binding (tested: 150 ng IgG1 per well)” in each case. Besides, the “ELISA Absorbance (405 nm-570 nm)” value turned out to be 0.071 in assay [1] and 0.072 with DCC.

B5: HW-56 chimeric rabbit-human IgG1 LA/LA/PG (antibody, V domains shown)
VH: QSVKESEGGLFKPTDTLTLTCTASGFTVSTNAVTWVRQAPGNGLEYIGTIGRSGSAYFASWAKRRSTLTRDINLNTVTLKMTSLTAADTATYFCVRGSPGYRTAISIWGPGTLVTISS
VL: AVMTQTPSSTSAAVEGTVTINCQASQSISNRLSWFQQKPGQPPKLLIYQASTLASGVPSRFKGSGSGTEFTLTISGVQREDAATYYCLGSYSSSDASFGGGTKLEIKR
notes: Fc-silenced (L234A/L235A/P329G) IgG1, kappa; Alexa Fluor 647-labeled in single-step flow cytometry; Cluster C-45
With B5, the binding result with IGSF11 (VSIG3) and in the assay with PTP4A3 (PRL-3) was “no binding (tested: 150 ng IgG1 per well)” each time. The entries for the “ELISA Absorbance (405 nm-570 nm)” value (in assay [1]; in the assay with DCC) were 0.102 and 0.088, respectively.
